Assay results taken from patent US20250223353A1 (BIOTHEUS, published 2025).

What was measured:
[1] = biological target: T1, cynomolgus monkey PVRIG-Fc protein (cynomolgus monkey, UniProt Q6DKI7 41-171 (human entry), limits assumed); assay: BLI (ForteBio), IgG on AHQ sensor, 100 nM PVRIG-Fc in solution, bivalent, 1:1 model
T1 construct: also called cynomolgus PVRIG-Fc protein; not shown: Fc part
T1 chain: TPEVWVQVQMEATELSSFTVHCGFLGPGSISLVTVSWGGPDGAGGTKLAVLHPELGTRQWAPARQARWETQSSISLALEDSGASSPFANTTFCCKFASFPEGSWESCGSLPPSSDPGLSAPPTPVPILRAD
Description: (§1) Biofilm layer optical interference technology (ForteBio) was used to determine the binding and dissociation rate constant (KD) values of the antibodies and their variants or Fab fragments obtained in Example 1 to human, cynomolgus monkey and mouse PVRIG. ForteBio affinity measurement was performed according to existing methods (Este, P et al., High throughput solution-based measurement of antibody-antigen affinity and epitope binning. Mabs, 2013.5 (2): p270-8).
(§2) The antibody-loaded sensor was continued to be loaded in a high concentration of irrelevant intact antibody for 10 min, saturating the Fc-binding site on the AHQ sensor. The saturated sensor was incubated in 100 nM PVRIG-Fc antigens to the plateau phase, and then the sensor was transferred to an analysis buffer and incubated for at least 2 minutes for measuring dissociation rate. The kinetic analysis was performed using a 1:1 binding model.

[2] = biological target: T2, mouse PVRIG-Fc protein (mouse); assay: as above
T2 construct: not shown: Fc part
T2 chain: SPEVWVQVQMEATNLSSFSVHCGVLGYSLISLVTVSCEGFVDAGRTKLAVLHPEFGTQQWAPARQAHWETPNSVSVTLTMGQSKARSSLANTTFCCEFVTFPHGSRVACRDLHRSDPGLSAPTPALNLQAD
Description: as §1, §2

[3] = biological target: T3, human PVRIG-his protein (human, UniProt Q6DKI7 41-171); assay: BLI (ForteBio), IgG on AHQ sensor, 100 nM PVRIG-his in solution, monovalent, 1:1 model
T3 construct: also called PVRIG-his antigen; human PVRIG protein; not shown: his tag
T3 sequence: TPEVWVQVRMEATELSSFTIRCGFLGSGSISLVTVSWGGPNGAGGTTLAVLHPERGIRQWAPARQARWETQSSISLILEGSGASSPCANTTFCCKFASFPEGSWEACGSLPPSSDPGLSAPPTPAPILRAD
Description: as §1
The antibody-loaded sensor was incubated in 100 nM PVRIG-his antigen to the plateau phase, and then the sensor was transferred to an analysis buffer and incubated for at least 2 minutes for measuring dissociation rate. The kinetic analysis was performed using a 1:1 binding model.

[4] = biological target: T4, human PVRIG on the cell surface (human, UniProt Q6DKI7 41-326); assay: flow cytometry on CHO-huPVRIG cells
T4 construct: whole, on cells; also called CHO-huPVRIG cells; human PVRIG protein overexpressed on the surface of CHO cells
T4 sequence (looked up): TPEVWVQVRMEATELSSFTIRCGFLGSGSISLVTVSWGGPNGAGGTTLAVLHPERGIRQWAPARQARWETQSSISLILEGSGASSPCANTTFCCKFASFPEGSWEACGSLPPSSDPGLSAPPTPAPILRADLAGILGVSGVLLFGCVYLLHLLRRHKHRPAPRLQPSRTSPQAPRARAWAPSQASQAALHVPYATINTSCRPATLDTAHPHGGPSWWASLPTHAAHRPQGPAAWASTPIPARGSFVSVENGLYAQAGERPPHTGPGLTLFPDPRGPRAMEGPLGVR
Description: (§3) The overexpressing cells were expanded and adjusted to an appropriate cell density, and added to a 96-well flow cytometry plate. After centrifugation, the cells were added with a gradiently diluted sample to be tested, and incubated at 4° C. for 30 minutes. The cells were washed twice with PBS, and added with a fluorescent secondary antibody correspondingly diluted to an appropriate concentration, then incubated at 4° C. for 30 minutes, and washed twice with PBS. Cells were resuspended with PBS, and detected on a CytoFlex flow cytometer, and the corresponding MFI was calculated. Graphpad software was used for graphical analysis to obtain EC50 values.

[5] = biological target: T5, cynomolgus PVRIG overexpressed on CHO cells (cynomolgus, UniProt A0A2K5WVV8 1-322); assay: flow cytometry on CHO-cynoPVRIG cells
T5 construct: whole, on cells; also called CHO-cynoPVRIG cells
T5 sequence: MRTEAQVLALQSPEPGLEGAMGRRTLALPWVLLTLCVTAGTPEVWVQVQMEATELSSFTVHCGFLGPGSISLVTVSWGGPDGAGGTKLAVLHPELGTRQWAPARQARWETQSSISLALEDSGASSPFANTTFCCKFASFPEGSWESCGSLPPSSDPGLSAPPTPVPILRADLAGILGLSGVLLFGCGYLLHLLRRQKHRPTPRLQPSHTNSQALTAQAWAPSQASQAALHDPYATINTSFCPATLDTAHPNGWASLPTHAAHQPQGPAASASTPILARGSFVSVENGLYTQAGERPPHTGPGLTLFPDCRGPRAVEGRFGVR
Description: as §3

[6] = biological target: Biotin-labeled mouse PVRIG huFc protein (mouse); assay: competition ELISA: biotin mouse PVRIG huFc (2 ug/mL) binding to coated mouse CD112-his
Description: Specifically, mouse CD112-his protein diluted with 1× coating buffer to a final concentration of 1 μg/mL was added to the ELISA plate at 100 μL/well, covered with the film, and coated overnight at 4° C. The coating solution in the ELISA plate was discarded, and the ELISA plate was washed three times with 1×PBST and was blocked with 5% BSA/PBS at 200 μL/well for 2 hours at room temperature. During the blocking period, the samples to be tested were gradient diluted with 1% BSA/PBS to a final volume of 60 μL/well. […] The above co-incubated samples were discarded, the ELISA plate was washed three times with 1×PBST, and SA-HRP diluted with 1% BSA/PBS was added at 100 μL/well and incubated for 1 hour at room temperature.

[7] = biological target: T6, human PVRIG protein with mouse IgG2a Fc tag (human, UniProt Q6DKI7 41-171, limits assumed); assay: flow cytometry competition: human PVRIG-mouse IgG2a Fc (1 ug/mL) binding to CHO-huCD112 cells
T6 construct: not shown: mouse IgG2a Fc tag
T6 sequence (looked up): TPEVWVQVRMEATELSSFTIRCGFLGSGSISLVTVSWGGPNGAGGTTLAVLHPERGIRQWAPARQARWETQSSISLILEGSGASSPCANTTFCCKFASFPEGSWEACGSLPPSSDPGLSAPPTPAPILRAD
Description: Specifically, CHO cells overexpressing human CD112 (CHO-huCD112 cells) were generated by transfection of the pCHO1.0 vector (purchased from Invitrogen) with cDNA encoding human CD112 cloned into the multiple cloning site (MCS), followed by pressure screening. The CHO-huCD112 cells were expanded and adjusted to a cell density of 2×10^6 cells/mL, added to a 96-well flow plate at 100 μL/well, and centrifuged for later use. The purified monoclonal antibody was gradiently diluted with PBS and the diluted sample was added to a 96-well flow plate at 60 μL/well. […] The above incubated samples were added at 100 μL/well to the 96-well flow plate containing CHO-huCD112 cells, incubated at 4° C. for 30 min and washed twice with PBS. APC-conjugated goat anti-mouse IgG antibody diluted 100-fold with PBS was added at 100 μL/well, incubated at 4° C. for 30 minutes and washed twice with PBS. Cells were resuspended with PBS at 100 μL/well, and detected on a CytoFlex flow cytometer, and the corresponding MFI was calculated.

[8] = biological target: T7, human PVRIG-Fc protein (human, UniProt Q6DKI7 41-171); assay: BLI (ForteBio), PVRIG-Fc on AHQ sensor, 100 nM Fab in solution, monovalent, 1:1 model
T7 construct: also called PVRIG-Fc antigen (human); not shown: Fc part
T7 sequence: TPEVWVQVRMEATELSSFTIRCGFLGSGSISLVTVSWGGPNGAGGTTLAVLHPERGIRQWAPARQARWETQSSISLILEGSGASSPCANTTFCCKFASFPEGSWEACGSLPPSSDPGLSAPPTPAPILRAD
Description: as §1
(§4) The antigen-loaded sensor was incubated in 100 nM Fab solution to the plateau phase, and then the sensor was transferred to an analysis buffer and incubated for at least 2 minutes for measuring dissociation rate. The kinetic analysis was performed using a 1:1 binding model.

[9] = biological target: T1, cynomolgus monkey PVRIG-Fc protein; assay: as above
Description: as §1, §4

[10] = biological target: T2, mouse PVRIG-Fc protein; assay: BLI (ForteBio), IgG on AHQ sensor, 100 nM PVRIG-Fc in solution, bivalent

B1: ADI-56249 (antibody, V domains shown)
VH: QVQLVQSGAEVKKPGSSVKVSCKASGGTFSTFAISWVRQAPGQGLEWMGDIIPIFGSNYAQKFQGRVTITADESTSTAYMELSSLRSEDTAVYYCARGPLEGKVSPFDIWGQGTMVTVSS
VL: DIVMTQSPLSLPVTPGEPASISCRSSQSLLHSTGYNYLDWYLQKPGQSPQLLIYVGSTRASGVPDRFSGSGSGTDFTLKISRVEAEDVGVYYCMQERQFPITFGGGTKVEIK
notes: Full-length IgG secreted by yeast and purified on Protein A
With B1 the Kd [1] was 0.244 nM, the Kd [2] was 2.62 nM and the Kd [3] was 0.872 nM.

B2: ADI-56249-G1LALA (antibody, human IgG1, kappa, L234A L235A, V domains shown)
VH: QVQLVQSGAEVKKPGSSVKVSCKASGGTFSTFAISWVRQAPGQGLEWMGDIIPIFGSNYAQKFQGRVTITADESTSTAYMELSSLRSEDTAVYYCARGPLEGKVSPFDIWGQGTMVTVSS
VL: DIVMTQSPLSLPVTPGEPASISCRSSQSLLHSTGYNYLDWYLQKPGQSPQLLIYVGSTRASGVPDRFSGSGSGTDFTLKISRVEAEDVGVYYCMQERQFPITFGGGTKVEIKR
For B2, the EC50 [4] was 1.3 nM, the EC50 [5] was 0.396 nM and the IC50 [6] was 3.22 nM. For the same binder, the IC50 [7] was 2.07 nM.

B3: ADI-56249 Fab fragment (Fab, V domains shown)
VH: QVQLVQSGAEVKKPGSSVKVSCKASGGTFSTFAISWVRQAPGQGLEWMGDIIPIFGSNYAQKFQGRVTITADESTSTAYMELSSLRSEDTAVYYCARGPLEGKVSPFDIWGQGTMVTVSS
VL: DIVMTQSPLSLPVTPGEPASISCRSSQSLLHSTGYNYLDWYLQKPGQSPQLLIYVGSTRASGVPDRFSGSGSGTDFTLKISRVEAEDVGVYYCMQERQFPITFGGGTKVEIK
notes: Fab made by papain digestion of the yeast full-length IgG, purified with Kappa Select
With B3 the Kd [8] was 0.263 nM and the Kd [9] was 21.2 nM.

B4: ADI-56145 (antibody, V domains shown)
VH: QVQLVQSGAEVKKPGASVKVSCKASGYTFTSYGISWVRQAPGQGLEWVGWISSYDASTKYSQELQGRVTMTTDTSTSTAYMELRSLRSEDTAVYYCARGSPIYEHFNWFDPWGQGTLVTVSS
VL: EIVLTQSPATLSLSPGERATLSCRASQSVSSYLAWYQQKPGQAPRLLIYDSSNRATGIPARFSGSGSGTDFTLTISSLEPEDFAVYYCQQLSHHPLTFGGGTKVEIK
notes: Full-length IgG secreted by yeast and purified on Protein A; also called anti-PVRIG antibody ADI-56145 (full-length IgG obtained from Adimab)
With B4 the binding result [10] was “no binding (tested: 100 nM)”, the Kd [1] was 0.623 nM and the Kd [3] was 2.04 nM.

B5: ADI-56145 Fab fragment (Fab, V domains shown)
VH: QVQLVQSGAEVKKPGASVKVSCKASGYTFTSYGISWVRQAPGQGLEWVGWISSYDASTKYSQELQGRVTMTTDTSTSTAYMELRSLRSEDTAVYYCARGSPIYEHFNWFDPWGQGTLVTVSS
VL: EIVLTQSPATLSLSPGERATLSCRASQSVSSYLAWYQQKPGQAPRLLIYDSSNRATGIPARFSGSGSGTDFTLTISSLEPEDFAVYYCQQLSHHPLTFGGGTKVEIK
notes: Fab made by papain digestion of the yeast full-length IgG, purified with Kappa Select; also called Fab of ADI-56145
B5 was tested, and the Kd [8] was 0.758 nM and the Kd [9] was 157 nM.

B6: ADI-56145-G1LALA (antibody, human IgG1, kappa, L234A L235A, V domains shown)
VH: QVQLVQSGAEVKKPGASVKVSCKASGYTFTSYGISWVRQAPGQGLEWVGWISSYDASTKYSQELQGRVTMTTDTSTSTAYMELRSLRSEDTAVYYCARGSPIYEHFNWFDPWGQGTLVTVSS
VL: EIVLTQSPATLSLSPGERATLSCRASQSVSSYLAWYQQKPGQAPRLLIYDSSNRATGIPARFSGSGSGTDFTLTISSLEPEDFAVYYCQQLSHHPLTFGGGTKVEIKR
Work on B6 yielded an EC50 [4] of 2.29 nM, an EC50 [5] of 37.6 nM and an IC50 [7] of 1.36 nM.

B7: ADI-56204 Fab fragment (Fab, V domains shown)
VH: QVQLVQSGAEVKKPGASVKVSCKASGYTFTHYGIYWVRQAPGQGLEWMGHIYAYSGDTDYAQKLQGRVTMTTDTSTSTAYMELRSLRSDDTAVYYCARGSPTYEHFNWFDPWGQGTLVTVSS
VL: DIQMTQSPSSLSASVGDRVTITCQASDDISDYLNWYQQKPGKAPKLLIYDASSLHTGVPSRFSGSGSGTDFTFTISSLQPEDIATYYCQQYGNLPITFGGGTKVEIK
notes: as for B3
Work on B7 yielded a Kd [8] of 0.383 nM and a Kd [9] of 14.8 nM.

B8: ADI-56204 (antibody, V domains shown)
VH: QVQLVQSGAEVKKPGASVKVSCKASGYTFTHYGIYWVRQAPGQGLEWMGHIYAYSGDTDYAQKLQGRVTMTTDTSTSTAYMELRSLRSDDTAVYYCARGSPTYEHFNWFDPWGQGTLVTVSS
VL: DIQMTQSPSSLSASVGDRVTITCQASDDISDYLNWYQQKPGKAPKLLIYDASSLHTGVPSRFSGSGSGTDFTFTISSLQPEDIATYYCQQYGNLPITFGGGTKVEIK
notes: as for B1
In the case of B8, the binding result [10] is reported as “no binding (tested: 100 nM)”, the Kd [1] is reported as 0.197 nM and the Kd [3] is reported as 0.425 nM.

B9: ADI-56127 (antibody, V domains shown)
VH: QVQLVQSGAEVKKPGSSVKVSCKASGGTESVDAISWVRQAPGQGLEWMGDIIPFFDTDYAQKFQGRVTITADESTSTAYMELSSLRSEDTAVYYCAREGGTSWTHFFDLWGRGTLVTVSS
VL: not shown
notes: as for B1
B9 gave a Kd [1] of 0.181 nM, a Kd [2] of 1.66 nM and a Kd [3] of 0.364 nM.
